Target: Cas9 (UniProt Q99ZW2 1-1368)
Assay: flow cytometry, Cas9 beads; Cell binding: 1e5 cells, 50 nM (flow) or 5 uM (confocal) FAM-DNA, 37 C, 30 min, PBS wash; bead assays: beads washed in PBS, binding buffer and temperature not stated
Details: protein: commercial; label: FAM

Sequence of Cas9 (Q99ZW2 whole entry): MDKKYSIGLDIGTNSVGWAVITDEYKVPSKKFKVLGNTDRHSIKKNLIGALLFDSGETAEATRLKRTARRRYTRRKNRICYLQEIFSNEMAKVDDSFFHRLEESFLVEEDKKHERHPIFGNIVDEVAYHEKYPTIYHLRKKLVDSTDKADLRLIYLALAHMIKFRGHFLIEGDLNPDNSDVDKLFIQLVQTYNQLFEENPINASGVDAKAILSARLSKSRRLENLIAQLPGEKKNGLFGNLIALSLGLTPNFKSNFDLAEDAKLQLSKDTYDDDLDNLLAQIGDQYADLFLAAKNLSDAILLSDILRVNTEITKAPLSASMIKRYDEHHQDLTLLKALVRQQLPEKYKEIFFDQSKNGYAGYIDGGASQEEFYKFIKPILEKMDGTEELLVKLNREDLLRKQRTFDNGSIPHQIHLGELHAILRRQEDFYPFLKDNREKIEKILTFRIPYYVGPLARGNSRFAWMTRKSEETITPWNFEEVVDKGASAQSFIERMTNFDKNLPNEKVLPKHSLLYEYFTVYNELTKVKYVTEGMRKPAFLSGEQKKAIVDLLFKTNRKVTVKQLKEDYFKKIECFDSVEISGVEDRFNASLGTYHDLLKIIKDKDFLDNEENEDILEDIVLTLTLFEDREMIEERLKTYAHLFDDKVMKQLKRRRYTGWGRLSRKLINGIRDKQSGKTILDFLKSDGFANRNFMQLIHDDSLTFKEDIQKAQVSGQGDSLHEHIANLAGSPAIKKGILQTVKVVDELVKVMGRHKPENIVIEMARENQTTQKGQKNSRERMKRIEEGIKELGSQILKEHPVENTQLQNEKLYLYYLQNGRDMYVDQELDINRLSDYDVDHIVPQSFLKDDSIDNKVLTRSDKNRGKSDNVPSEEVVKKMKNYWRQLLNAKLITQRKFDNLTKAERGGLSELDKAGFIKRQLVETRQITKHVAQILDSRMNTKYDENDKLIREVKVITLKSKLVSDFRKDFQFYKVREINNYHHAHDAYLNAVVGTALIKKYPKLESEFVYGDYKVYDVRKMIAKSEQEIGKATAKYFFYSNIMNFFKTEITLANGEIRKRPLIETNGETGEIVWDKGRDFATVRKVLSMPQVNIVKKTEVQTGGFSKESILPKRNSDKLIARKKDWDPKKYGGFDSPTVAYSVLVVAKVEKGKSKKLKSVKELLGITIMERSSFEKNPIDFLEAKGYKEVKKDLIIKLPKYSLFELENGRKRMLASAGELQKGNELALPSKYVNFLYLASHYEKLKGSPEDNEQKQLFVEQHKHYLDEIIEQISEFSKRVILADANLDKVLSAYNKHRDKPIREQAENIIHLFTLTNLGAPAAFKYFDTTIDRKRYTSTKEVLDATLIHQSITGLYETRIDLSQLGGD

B1: sgRNA (structured_RNA)
RNA: GGUGGUGCAGAUGAACUUCAGUUUUAGAGCUAGAAAUAGCAAGUUAAAAUAAGGCUAGUCCGUUAUCAACUUGAAAAAGUGGCACCGAGUCGGUGCUUUU
- binding result: binds
